Reference: paper doi:10.1101/2025.08.25.672209, “Molecular Architecture and Function Mechanism of Tri-heteromeric GluN1-N2-N3A NMDA Receptors” (bioRxiv, 2025)

Tests used:
[1] = molecular target: T1, rat GluN1-1a (residues 1-847), CTD-truncated (rat, UniProt P35439-1); experiment: cryo-EM structure; GluN1-N2A-N3A (subunits co-expressed and co-purified) incubated with Fabs 4F11 and 2-8C, SEC in digitonin with 1 mM glycine and 1 mM glutamate, pH 8.0; overall resolution 7.7 Å; settings: both partners purified
T1 construct: signal peptide in the construct; rat GluN1-1a, residues 1-847 (CTD-truncated), GenBank NP_058706.1; no tag is stated for GluN1 itself; a T2A remnant may remain on one of the two chains (surmise); source: HEK293S GnTI- cells, baculovirus transduction, co-expressed with GluN2A and GluN3A; purified as receptor complex (Strep-Tactin, Ni resin, SEC)

[2] = molecular target: T2, GluN1-N3A di-heteromeric NMDA receptor (rat, CTD-truncated; fraction of the same preparation) (rat, UniProt P35439-1;Q9R1M7-1); experiment: SEC; fluorescence-detection size-exclusion chromatography (FSEC); receptors preincubated with N1-Fab 4F11, N2A-Fab 28C or both; shift of the elution peak; settings: both partners purified
T2 construct: signal peptide in the construct; rat GluN1-1a, residues 1-847, as m1; rat GluN3A, residues 1-965, as m3; also called GluN1-N3A di-NMDARs; source: HEK293S GnTI- cells, baculovirus transduction; copies: 2 + 2

binding result [1]: binds
binding result [2]: binds
B1: N1-Fab 4F11 (Fab of the anti-GluN1 monoclonal antibody clone 4F11) (Fab, V domains shown)
VH: DVQLQESGPGLVKPSQSLSLTCTVTGYSITSDYAWNWIRQFPGNKLEWMGYISYSGSTGYNPSLKSRISITRDTSKNQFFLQLNSVTTEDTATYYCARLYYGFYGMDYWGQGTSVTVSS
VL: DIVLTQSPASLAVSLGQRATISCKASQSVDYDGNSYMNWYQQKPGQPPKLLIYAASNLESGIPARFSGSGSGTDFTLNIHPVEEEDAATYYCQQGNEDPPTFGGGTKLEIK
notes: Raised against CTD-truncated human GluN1-N2A receptors; also called Fab-N1_(4F11); source: hybridoma monoclonal antibody, papain digestion, Fc removed with protein-A agarose, purified by SEC
